In paper PMC11134355 (JACS Au, 2024):

Assays:
Assay in all cases: fluorescence polarisation
Conditions in all cases: both partners purified
[1] = target: TgPDCD5 N-terminal peptide (FITC-MQPEEFA) (T. gondii (GT1 strain), FITC label, printed before the first residue (FITC-MQPEEFA))
[2] = target: TgPDCD5 middle-position peptide (FITC-VLTPAAQE) (T. gondii (GT1 strain), FITC label, printed before the first residue (FITC-VLTPAAQE))
[3] = target: TgPDCD5 C-terminal peptide (FITC-KNTPKVTM) (T. gondii (GT1 strain), FITC label, printed before the first residue (FITC-KNTPKVTM))

B1: TgCyp18 (enzyme)
chain: not shown
- Kd [1]: 1.41 mM
- Kd [2]: 1.2 mM
- Kd [3]: 0.311 mM
